Publication PMC12416549 (2024)
Numbering of substitutions follows the chain as printed. Numbers in names are those of the source.

T1: TNFR1 (Homo sapiens, UniProt P19438)
T1 chain: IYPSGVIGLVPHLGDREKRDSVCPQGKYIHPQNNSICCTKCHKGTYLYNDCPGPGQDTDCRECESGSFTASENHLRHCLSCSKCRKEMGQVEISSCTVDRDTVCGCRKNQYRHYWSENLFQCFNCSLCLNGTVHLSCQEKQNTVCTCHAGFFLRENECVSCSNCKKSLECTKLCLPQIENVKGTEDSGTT

B1: A88T (designed binder)
chain: MTLQELLREEALRRAEAEAFRYALELLAEKFPEQKEYLLDLAEEIESQIRSLSGVDVEDVRKFLDKEWAWVKELLAEHPAELAEVEATRAARLAELRAEVEAKVAA
B2: A23W (designed binder)
chain: B1 chain with A23W, T88A
B3: A90G (designed binder)
chain: B1 chain with T88A, A90G
B4: S51V (designed binder)
chain: B1 chain with S51V, T88A
B5: R89V (designed binder)
chain: B1 chain with T88A, R89V
B6: E36F (designed binder)
chain: B1 chain with E36F, T88A
B7: E9P (designed binder)
chain: B1 chain with E9P, T88A
B8: E99R (designed binder)
chain: B1 chain with T88A, E99R
B9: L41D (designed binder)
chain: B1 chain with L41D, T88A
B10: Y22V (designed binder)
chain: B1 chain with Y22V, T88A
B11: E67W (designed binder)
chain: B1 chain with E67W, T88A
B12: L75M (designed binder)
chain: B1 chain with L75M, T88A
B13: L7C (designed binder)
chain: B1 chain with L7C, T88A
B14: L75A (designed binder)
chain: B1 chain with L75A, T88A
B15: D40M (designed binder)
chain: B1 chain with D40M, T88A
B16: L6H (designed binder)
chain: B1 chain with L6H, T88A
B17: K62D (designed binder)
chain: B1 chain with K62D, T88A
B18: R50P (designed binder)
chain: B1 chain with R50P, T88A
B19: E10H (designed binder)
chain: B1 chain with E10H, T88A
B20: F63E (designed binder)
chain: B1 chain with F63E, T88A
B21: A98E (designed binder)
chain: B1 chain with T88A, A98E
B22: L41K (designed binder)
chain: B1 chain with L41K, T88A
B23: Y22D (designed binder)
chain: B1 chain with Y22D, T88A
B24: V60Q (designed binder)
chain: B1 chain with V60Q, T88A
B25: Y37N (designed binder)
chain: B1 chain with Y37N, T88A
B26: K62N (designed binder)
chain: B1 chain with K62N, T88A
B27: A17I (designed binder)
chain: B1 chain with A17I, T88A
B28: I45L (designed binder)
chain: B1 chain with I45L, T88A
B29: K30D (designed binder)
chain: B1 chain with K30D, T88A
B30: E73Q (designed binder)
chain: B1 chain with E73Q, T88A
B31: K35F (designed binder)
chain: B1 chain with K35F, T88A
B32: A80T (designed binder)
chain: B1 chain with A80T, T88A
B33: V60A (designed binder)
chain: B1 chain with V60A, T88A
B34: V85W (designed binder)
chain: B1 chain with V85W, T88A
B35: E10G (designed binder)
chain: B1 chain with E10G, T88A
B36: Q34I (designed binder)
chain: B1 chain with Q34I, T88A
B37: R92N (designed binder)
chain: B1 chain with T88A, R92N
B38: E73D (designed binder)
chain: B1 chain with E73D, T88A
B39: A90I (designed binder)
chain: B1 chain with T88A, A90I
B40: A80K (designed binder)
chain: B1 chain with A80K, T88A
B41: P32L (designed binder)
chain: B1 chain with P32L, T88A
B42: E101N (designed binder)
chain: B1 chain with T88A, E101N
B43: D56G (designed binder)
chain: B1 chain with D56G, T88A
B44: V55T (designed binder)
chain: B1 chain with V55T, T88A
B45: V100K (designed binder)
chain: B1 chain with T88A, V100K
B46: L3R (designed binder)
chain: B1 chain with L3R, T88A
B47: R89F (designed binder)
chain: B1 chain with T88A, R89F
B48: A106I (designed binder)
chain: B1 chain with T88A, A106I
B49: A23C (designed binder)
chain: B1 chain with A23C, T88A
B50: L52H (designed binder)
chain: B1 chain with L52H, T88A
B51: L38R (designed binder)
chain: B1 chain with L38R, T88A
B52: L6E (designed binder)
chain: B1 chain with L6E, T88A
B53: V55H (designed binder)
chain: B1 chain with V55H, T88A
B54: E101R (designed binder)
chain: B1 chain with T88A, E101R
B55: A83F (designed binder)
chain: B1 chain with A83F, T88A
B56: E5N (designed binder)
chain: B1 chain with E5N, T88A
B57: F20T (designed binder)
chain: B1 chain with F20T, T88A
B58: R50I (designed binder)
chain: B1 chain with R50I, T88A
B59: P32E (designed binder)
chain: B1 chain with P32E, T88A

Target: T1, TNFR1
Assay: yeast display SC50

Row | apparent Kd (screen) | Binder
1 | 1.4 nM | B1
2 | 0.869 nM | B2
3 | 0.653 nM | B3
4 | 2.05 nM | B4
5 | 0.79 nM | B5
6 | 0.539 nM | B6
7 | 20.2 nM | B7
8 | 0.446 nM | B8
9 | 1.27 nM | B9
10 | 0.79 nM | B10
11 | 10.4 nM | B11
12 | 1.54 nM | B12
13 | 8.56 nM | B13
14 | 0.653 nM | B14
15 | 0.593 nM | B15
16 | 8.56 nM | B16
17 | 0.593 nM | B17
18 | 2.25 nM | B18
19 | 3.3 nM | B19
20 | 0.593 nM | B20

Row | apparent Kd (screen) | Binder
21 | 0.869 nM | B21
22 | 11.4 nM | B22
23 | 0.446 nM | B23
24 | 0.718 nM | B24
25 | 0.869 nM | B25
26 | 0.49 nM | B26
27 | 0.229 nM | B27
28 | 0.539 nM | B28
29 | 1.27 nM | B29
30 | 0.446 nM | B30
31 | 0.539 nM | B31
32 | 0.718 nM | B32
33 | 0.653 nM | B33
34 | 0.869 nM | B34
35 | 1.4 nM | B35
36 | 0.593 nM | B36
37 | 0.718 nM | B37
38 | 0.539 nM | B38
39 | 0.49 nM | B39
40 | 0.718 nM | B40

Row | apparent Kd (screen) | Binder
41 | 0.593 nM | B41
42 | 0.718 nM | B42
43 | 0.956 nM | B43
44 | 0.718 nM | B44
45 | 0.49 nM | B45
46 | 2.48 nM | B46
47 | 1.05 nM | B47
48 | 0.593 nM | B48
49 | 0.446 nM | B49
50 | 6.43 nM | B50
51 | 4.39 nM | B51
52 | 8.56 nM | B52
53 | 1.16 nM | B53
54 | 0.49 nM | B54
55 | 0.593 nM | B55
56 | 0.446 nM | B56
57 | 1.16 nM | B57
58 | 0.956 nM | B58
59 | 0.49 nM | B59
